Data as given in paper PMC2652359.

Molecular target: human factor Xa (human)
Assay: functional titration of prothrombinase activity

Sequence of human factor Xa (human) (P00742 whole entry): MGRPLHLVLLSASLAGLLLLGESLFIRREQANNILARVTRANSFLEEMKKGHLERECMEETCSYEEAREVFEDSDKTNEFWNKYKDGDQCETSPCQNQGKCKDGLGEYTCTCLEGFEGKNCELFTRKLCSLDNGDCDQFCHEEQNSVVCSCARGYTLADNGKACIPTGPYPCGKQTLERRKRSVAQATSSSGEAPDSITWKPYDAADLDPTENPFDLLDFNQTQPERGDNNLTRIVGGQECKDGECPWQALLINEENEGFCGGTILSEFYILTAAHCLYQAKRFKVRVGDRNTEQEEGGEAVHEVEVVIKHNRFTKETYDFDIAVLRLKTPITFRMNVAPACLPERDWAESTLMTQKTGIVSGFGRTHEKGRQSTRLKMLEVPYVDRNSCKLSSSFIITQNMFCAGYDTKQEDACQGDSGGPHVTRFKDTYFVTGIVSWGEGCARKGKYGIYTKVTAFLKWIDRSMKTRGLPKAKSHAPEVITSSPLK

recombinant wild-type human factor Va (from UniProt P12259 29-737; P12259 1574-2224) (natural protein)
Kd: 0.24 nM
